Test results published in patent US20190134153A1, “IMMUNOMODULATORY EFFECT OF INHALED KINASE INHIBITOR PEPTIDES IN LUNG” (MOERAE MATRIX, INC., priority 2017, published 2019).

Experiments:
Test in all cases: Kinase Profiling Assay
Type in all cases: biochemical
Details in all cases: 100 μM
IRAK4(h) = molecular target: T1, IRAK4(h) (Homo sapiens, UniProt Q9NWZ3)
T1 sequence (Q9NWZ3 1-460): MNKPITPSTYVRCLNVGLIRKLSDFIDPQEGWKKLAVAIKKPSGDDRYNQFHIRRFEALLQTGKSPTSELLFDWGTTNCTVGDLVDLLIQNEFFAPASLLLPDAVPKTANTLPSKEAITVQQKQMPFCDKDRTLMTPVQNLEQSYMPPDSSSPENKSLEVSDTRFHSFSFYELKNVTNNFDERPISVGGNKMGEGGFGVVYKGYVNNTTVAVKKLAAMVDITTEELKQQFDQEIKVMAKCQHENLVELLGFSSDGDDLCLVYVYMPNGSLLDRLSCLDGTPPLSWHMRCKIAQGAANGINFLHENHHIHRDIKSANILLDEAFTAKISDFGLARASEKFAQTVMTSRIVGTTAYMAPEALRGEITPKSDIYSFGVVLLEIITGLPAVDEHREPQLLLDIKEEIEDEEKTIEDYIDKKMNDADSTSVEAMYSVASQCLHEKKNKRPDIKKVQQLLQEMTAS

IGF-1R(h), activated = IGF-1R(h), activated (Homo sapiens, UniProt P08069)
SGK3(h) = molecular target: T2, SGK3(h) (Homo sapiens, UniProt Q96BR1)
T2 sequence (Q96BR1 1-496): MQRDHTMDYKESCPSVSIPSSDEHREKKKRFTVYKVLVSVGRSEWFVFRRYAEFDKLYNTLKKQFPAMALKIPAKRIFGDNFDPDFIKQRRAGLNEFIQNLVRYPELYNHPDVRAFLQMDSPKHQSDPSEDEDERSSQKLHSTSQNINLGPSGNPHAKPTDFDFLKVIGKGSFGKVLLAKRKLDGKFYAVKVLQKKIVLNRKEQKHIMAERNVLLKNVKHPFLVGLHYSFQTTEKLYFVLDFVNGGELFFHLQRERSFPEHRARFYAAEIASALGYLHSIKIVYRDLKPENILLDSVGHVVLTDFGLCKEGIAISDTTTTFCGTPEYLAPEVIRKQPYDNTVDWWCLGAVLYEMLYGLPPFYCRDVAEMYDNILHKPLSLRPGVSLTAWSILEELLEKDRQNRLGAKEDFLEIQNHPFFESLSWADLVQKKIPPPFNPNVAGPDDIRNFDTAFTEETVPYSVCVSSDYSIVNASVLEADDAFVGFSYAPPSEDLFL

MuSK(h) = molecular target: T3, MuSK(h) (Homo sapiens, UniProt O15146)
T3 sequence (O15146 24-869): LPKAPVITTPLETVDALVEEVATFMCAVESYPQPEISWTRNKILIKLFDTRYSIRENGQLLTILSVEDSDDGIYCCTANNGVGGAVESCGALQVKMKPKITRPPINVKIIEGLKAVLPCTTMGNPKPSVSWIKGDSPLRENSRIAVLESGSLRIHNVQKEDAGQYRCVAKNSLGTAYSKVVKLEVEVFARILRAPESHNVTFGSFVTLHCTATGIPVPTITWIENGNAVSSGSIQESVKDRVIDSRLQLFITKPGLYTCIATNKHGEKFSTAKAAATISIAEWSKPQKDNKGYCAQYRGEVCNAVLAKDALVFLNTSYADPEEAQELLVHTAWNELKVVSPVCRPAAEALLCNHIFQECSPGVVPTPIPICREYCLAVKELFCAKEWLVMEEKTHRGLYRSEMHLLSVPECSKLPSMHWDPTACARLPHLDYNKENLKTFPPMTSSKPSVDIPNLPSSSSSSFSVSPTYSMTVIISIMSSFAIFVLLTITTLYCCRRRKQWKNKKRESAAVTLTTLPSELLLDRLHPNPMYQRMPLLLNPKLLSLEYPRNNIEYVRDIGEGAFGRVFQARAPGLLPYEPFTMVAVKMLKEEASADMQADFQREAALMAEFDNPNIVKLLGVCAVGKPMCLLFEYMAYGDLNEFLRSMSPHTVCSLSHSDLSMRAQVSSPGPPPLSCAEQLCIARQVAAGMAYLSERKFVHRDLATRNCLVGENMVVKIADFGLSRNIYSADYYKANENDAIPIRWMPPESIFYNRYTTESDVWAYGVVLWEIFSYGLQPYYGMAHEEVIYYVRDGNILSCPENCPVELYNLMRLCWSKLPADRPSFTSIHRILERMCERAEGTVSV

CDK1/cyclinB(h) = CDK1/cyclinB(h) (Homo sapiens, UniProt P06493)
Chain of CDK1/cyclinB(h) (P06493 whole entry): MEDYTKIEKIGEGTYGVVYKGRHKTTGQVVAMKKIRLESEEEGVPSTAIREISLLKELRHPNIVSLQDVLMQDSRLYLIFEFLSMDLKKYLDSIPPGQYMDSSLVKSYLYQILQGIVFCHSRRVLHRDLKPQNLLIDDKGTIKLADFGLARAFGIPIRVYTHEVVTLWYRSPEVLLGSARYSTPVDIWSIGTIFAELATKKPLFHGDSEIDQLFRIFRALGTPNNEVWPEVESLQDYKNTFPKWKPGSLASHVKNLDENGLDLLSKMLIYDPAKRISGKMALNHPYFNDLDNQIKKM
Chain of CDK1/cyclinB(h) (P14635 whole entry partner): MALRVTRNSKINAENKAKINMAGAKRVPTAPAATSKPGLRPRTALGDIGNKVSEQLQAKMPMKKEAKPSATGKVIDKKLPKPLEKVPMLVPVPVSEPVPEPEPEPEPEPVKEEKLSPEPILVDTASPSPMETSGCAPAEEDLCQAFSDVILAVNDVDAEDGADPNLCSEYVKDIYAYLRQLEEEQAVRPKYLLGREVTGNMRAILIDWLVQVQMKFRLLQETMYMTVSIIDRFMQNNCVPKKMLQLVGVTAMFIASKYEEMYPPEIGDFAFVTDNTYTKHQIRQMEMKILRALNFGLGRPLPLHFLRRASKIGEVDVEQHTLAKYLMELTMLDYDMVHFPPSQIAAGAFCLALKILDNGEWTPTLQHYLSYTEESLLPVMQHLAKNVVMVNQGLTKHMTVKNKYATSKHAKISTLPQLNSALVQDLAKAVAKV

DDR2(h) = molecular target: T4, DDR2(h) (Homo sapiens, UniProt Q16832)
T4 sequence (Q16832 22-855): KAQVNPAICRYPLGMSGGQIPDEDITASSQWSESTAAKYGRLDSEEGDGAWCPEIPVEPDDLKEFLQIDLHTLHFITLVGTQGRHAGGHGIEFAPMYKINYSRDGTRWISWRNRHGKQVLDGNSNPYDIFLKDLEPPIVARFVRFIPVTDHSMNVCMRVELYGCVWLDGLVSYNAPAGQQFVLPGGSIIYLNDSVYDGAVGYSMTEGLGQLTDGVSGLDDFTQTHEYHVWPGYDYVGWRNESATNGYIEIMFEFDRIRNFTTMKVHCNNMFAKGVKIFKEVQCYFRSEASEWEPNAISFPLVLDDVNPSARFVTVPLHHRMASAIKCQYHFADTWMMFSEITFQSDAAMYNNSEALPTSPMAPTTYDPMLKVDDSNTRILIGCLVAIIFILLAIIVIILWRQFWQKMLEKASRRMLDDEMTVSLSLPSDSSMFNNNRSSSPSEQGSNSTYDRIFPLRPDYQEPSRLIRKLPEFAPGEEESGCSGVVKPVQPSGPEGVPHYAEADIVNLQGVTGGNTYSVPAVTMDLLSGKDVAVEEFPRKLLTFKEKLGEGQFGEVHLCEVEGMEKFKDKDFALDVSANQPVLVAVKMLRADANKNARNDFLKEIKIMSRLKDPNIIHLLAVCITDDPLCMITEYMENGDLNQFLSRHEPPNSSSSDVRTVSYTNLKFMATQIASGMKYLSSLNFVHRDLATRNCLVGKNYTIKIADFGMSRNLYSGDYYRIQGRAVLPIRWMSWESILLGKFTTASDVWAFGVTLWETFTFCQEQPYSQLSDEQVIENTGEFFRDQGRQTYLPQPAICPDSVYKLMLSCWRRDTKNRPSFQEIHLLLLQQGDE

Row | Sequence | % activity (IRAK4(h)) | % activity (IGF-1R(h), activated) | % activity (SGK3(h)) | % activity (MuSK(h)) | % activity (CDK1/cyclinB(h)) | % activity (DDR2(h))
1 | YARAAARQARAKALNRQLGVA [MMI-0200] | 110% | 94% | 58% |  |  | 
2 | KAFAKLAARLYRKALARQLGVAA [MMI-0400] | 59% | 77% | 8% | 93% | 74% | 95%
3 | HRRIKAWLKKIKALARQLGVAA [MMI-0500] | 3% | 45% | −3% | 27% | 57% | 79%
4 | FAKLAARLYRKALARQLGVAA [MMI-0300] | 59% | 80% | 10% | 93% | 73% | 94%
